Experimental data as given in patent US20110230650A1 (NORTHWESTERN UNIVERSITY, published 2011).

Biological target: the molecule itself
Experiment: gel filtration (Superdex 200) of His-tagged LP4 purified without detergent; lipid nanodisc
From the text: In some embodiments, the presently disclosed compositions comprise a distinct form of polypeptides that are specifically engineered to spontaneously solubilize membrane proteins without a detergent intermediary (i.e., “LP” molecules). […] For example, in some embodiments the polypeptides comprise multiple repeats of an amphipathic helical fragment of ApoA1. […] The eluted protein was run on a gel filtration column (Superdex 200, FIG. 3, middle panel). […] The protein behaved as expected: it self-assembled as a dimer of appropriate size (as in FIG. 2) and solubilized a membrane fragment.

B1: histidine-tagged LP4 (designed binder)
chain: FQKKWQEEMELYRQKVEPLRAELQEGARQKLHELQEKLSPLGEEMRDRARAHVDAFQKKWQEEMELYRQKVEPLRAELQEGARQKLHELQEKLSPLGEEMRDRARAHVDAFQKKWQEEMELYRQKVEPLRAELQEGARQKLHELQEKLSPLGEEMRDRARAHVDAFQKKWQEEMELYRQKVEPLRAELQEGARQKLHELQEKLSPLGEEMRDRARAHVDA
notes: Histidine-tagged LP4 purified without detergent as an empty, lipid-filled nanodisc; not shown: histidine tag
- binding result: binds
